By Kd is commonly meant the free concentration of one partner at which half of the binding sites on the other are occupied at equilibrium, for simple one-to-one binding. One may read the koff as the first-order rate constant of dissociation. As usually defined, the kon is the rate constant with which the complex forms. As a reminder, the EC50 is the concentration giving half of the maximal effect.

Where two headings read alike, the source gives them in different places.

Assay [1] deals with his-tagged human CD40 recombinant protein (h-CD40-his, Acrobiosystems Cat. #CD0-H5228) (human) (UniProt P25942). Kind of assay: SPR (Biacore), antibody captured on anti-human Fc chip, His-tagged CD40 as analyte, 1:1 model.
For assay [2], the target named is human CD40 on the cell surface (Raji cells, HEK-Blue CD40L cells, primary human B cells and DCs) (human) (UniProt P25942). The experiment in a line: cell-based or functional assay.
For assay [3] the target is unchanged. Kind of assay: flow cytometry (FACS) binding to Raji cells. A general note: Flow cytometry measures light scatter and fluorescence of single cells or particles in a stream.
The target is the same in assay [4]. Kind of assay: flow cytometry (FACS) binding to Raji cells. The source holds these as a separate data set.

human CD40 on the cell surface (Raji cells, HEK-Blue CD40L cells, primary human B cells and DCs) (human), sequence (P25942 21-277): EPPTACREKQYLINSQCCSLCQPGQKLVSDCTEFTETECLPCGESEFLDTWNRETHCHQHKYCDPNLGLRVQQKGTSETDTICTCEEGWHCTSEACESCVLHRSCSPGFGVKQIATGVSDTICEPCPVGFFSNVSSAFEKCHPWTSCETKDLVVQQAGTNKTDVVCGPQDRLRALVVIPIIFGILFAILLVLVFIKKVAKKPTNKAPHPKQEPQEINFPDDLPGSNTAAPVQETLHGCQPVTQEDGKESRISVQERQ
his-tagged human CD40 recombinant protein (h-CD40-his, Acrobiosystems Cat. #CD0-H5228) (human), sequence (P25942 21-193 limits assumed): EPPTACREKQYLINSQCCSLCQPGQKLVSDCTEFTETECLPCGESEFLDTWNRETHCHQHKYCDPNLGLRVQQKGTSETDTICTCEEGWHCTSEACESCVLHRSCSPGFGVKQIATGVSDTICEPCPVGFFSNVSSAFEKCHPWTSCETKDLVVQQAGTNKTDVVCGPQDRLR

For the substance “CFZ533 (iscalimab), anti-CD40 antagonistic antibody, positive control”, in assay [1], the Kd was 0.205 nM, the dissociation rate constant (koff) was 0.000141 s⁻¹ and the on-rate constant (kon) worked out at 688000 M⁻¹ s⁻¹. In assay [2], the B cell activation assay, CD19+CD69+ %, IC50 amounted to 0.14 nM; the B cell activation assay, CD19+CD69+ %, maximum inhibition rate worked out at 95%; the B cell activation assay, CD19+CD69+ MFI, IC50 worked out at 0.07 nM; the B cell activation assay, CD19+CD69+ MFI, maximum inhibition rate was determined as 110%. Also, in assay [2], the IC50 for the inhibition of CD40 reporter gene cell activity (Experiment 1) came to 0.36 nM; the IC50 for the inhibition of CD40 reporter gene cell activity (Experiment 2) is 0.35 nM; the IC50 in DC cell activation assay system, CD80 MFI is 1.19 nM; the IC50 in DC cell activation assay system, CD86 MFI worked out at 1.93 nM. In assay [2], the IC50 in DC cell activation assay system, IL-12/23 p40 amounted to 0.68 nM; the IC50 in DC cell activation assay system, TNFα was 0.35 nM; the Reporter gene cell activity IC50 (SEAP, HEK-Blue CD40L cells stimulated with CD40L) stood at 0.272 nM. The same substance displayed an EC50 in assay [3] of 1.01 nM. This substance gave an EC50 in assay [4] of 2.41 nM.

Values taken from patent US20260207759A1, “COMPOSITION OF CD40-BINDING MOLECULE AND PHARMACEUTICAL USE THEREOF” (SUZHOU SUNCADIA BIOPHARMACEUTICALS CO., LTD., priority 2022, published 2026).
